Test results: article PMC6594998, “Inhibition of CRISPR-Cas9 ribonucleoprotein complex assembly by anti-CRISPR AcrIIC2”

T1: Nme1Cas9 (Neisseria meningitidis, UniProt C9X1G5 1-1082)
T1 sequence: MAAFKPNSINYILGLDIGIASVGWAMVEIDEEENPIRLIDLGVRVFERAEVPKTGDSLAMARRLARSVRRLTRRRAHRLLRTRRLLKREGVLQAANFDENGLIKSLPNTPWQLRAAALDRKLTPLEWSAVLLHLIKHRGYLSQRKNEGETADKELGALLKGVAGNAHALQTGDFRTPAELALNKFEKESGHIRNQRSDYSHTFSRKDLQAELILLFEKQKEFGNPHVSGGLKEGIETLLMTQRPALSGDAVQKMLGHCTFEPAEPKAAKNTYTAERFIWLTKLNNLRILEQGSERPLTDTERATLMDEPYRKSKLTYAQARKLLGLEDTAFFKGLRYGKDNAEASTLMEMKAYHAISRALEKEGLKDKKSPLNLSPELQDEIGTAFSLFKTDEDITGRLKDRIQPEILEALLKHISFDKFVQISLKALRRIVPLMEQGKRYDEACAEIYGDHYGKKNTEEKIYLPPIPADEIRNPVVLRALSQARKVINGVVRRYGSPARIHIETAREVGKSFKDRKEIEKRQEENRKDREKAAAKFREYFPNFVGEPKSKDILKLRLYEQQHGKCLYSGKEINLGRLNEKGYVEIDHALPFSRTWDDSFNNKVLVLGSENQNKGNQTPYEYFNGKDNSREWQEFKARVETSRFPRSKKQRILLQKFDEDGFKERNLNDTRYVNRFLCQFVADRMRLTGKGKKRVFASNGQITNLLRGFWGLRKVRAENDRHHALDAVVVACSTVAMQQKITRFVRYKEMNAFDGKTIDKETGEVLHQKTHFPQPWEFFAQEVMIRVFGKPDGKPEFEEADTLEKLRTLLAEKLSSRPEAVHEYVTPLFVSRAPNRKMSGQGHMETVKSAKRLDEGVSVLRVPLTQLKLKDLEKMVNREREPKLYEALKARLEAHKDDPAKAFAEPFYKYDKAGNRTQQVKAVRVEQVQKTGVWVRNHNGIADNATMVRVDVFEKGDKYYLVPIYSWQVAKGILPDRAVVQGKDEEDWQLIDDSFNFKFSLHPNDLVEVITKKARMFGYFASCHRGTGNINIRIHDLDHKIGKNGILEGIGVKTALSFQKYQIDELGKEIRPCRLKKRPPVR

B1: repeat:anti-repeat (cr:tracr) (structured_RNA)
RNA: GGUUGUAGCUCCCUUUCUCGAAAGAGAACCGUUGCUACAAUAA
B2: full length sgRNA (filter binding) (structured_RNA)
RNA: GGUCUGUAAGCGGAUGCCAUAUGGUUGUAGCUCCCUUUCUCGAAAGAGAACCGUUGCUACAAUAAGGCCGUCUGAAAAGAUGUGCCGCAACGCUCUGCCCCUUAAAGCUUCUGCUUUAACGGGCUU

Key:
[1] = target: T1, Nme1Cas9; test: filter binding; no AcrIIC2Nme; Filter binding: 20 mM Tris pH 7.5, 100 mM KCl, 5 mM MgCl2, 1 mM DTT, 5% glycerol, 0.01% Igepal, 10 ug/mL yeast tRNA, 10 ug/mL BSA, 37 C, 30 min; ITC: 300 mM NaCl, 20 mM Tris pH 7.5, 20 C; gel filtration: 300 mM NaCl, 20 mM Tris pH 7.5; pull-down: 50 mM Tris pH 7.5, 200 mM NaCl, 5% glycerol, 20 mM imidazole; details: protein: recombinant; label: radiolabeled; hairpin
[2] = target: T1, Nme1Cas9; test: filter binding; no AcrIIC2Nme; 5 mM MgCl2; Filter binding: 20 mM Tris pH 7.5, 100 mM KCl, 5 mM MgCl2, 1 mM DTT, 5% glycerol, 0.01% Igepal, 10 ug/mL yeast tRNA, 10 ug/mL BSA, 37 C, 30 min; ITC: 300 mM NaCl, 20 mM Tris pH 7.5, 20 C; gel filtration: 300 mM NaCl, 20 mM Tris pH 7.5; pull-down: 50 mM Tris pH 7.5, 200 mM NaCl, 5% glycerol, 20 mM imidazole; details: protein: recombinant; label: radiolabeled; sgRNA with repeat:anti-repeat hairpin and stem loops 1 and 2

| Binder | binding result [1] | Kd [2] |
| --- | --- | --- |
| B1 | binds |  |
| B2 |  | 0.24 ± 0.14 nM |
